T1: GRIP1_4, Q9Y3R0
T1 sequence (Q9Y3R0 467-571, limits assumed, looked up): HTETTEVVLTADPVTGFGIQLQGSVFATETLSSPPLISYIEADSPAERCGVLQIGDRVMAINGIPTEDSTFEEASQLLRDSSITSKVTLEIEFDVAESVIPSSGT

T2: LRRC7, Q96NW7
T2 sequence (Q96NW7 1440-1537, limits assumed, looked up): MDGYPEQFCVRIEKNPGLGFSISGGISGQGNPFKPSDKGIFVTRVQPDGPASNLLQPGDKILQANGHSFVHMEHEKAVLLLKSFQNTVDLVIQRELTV

T3: SIPA1L2, Q9P2F8
T3 sequence (Q9P2F8 945-1036, limits assumed, looked up): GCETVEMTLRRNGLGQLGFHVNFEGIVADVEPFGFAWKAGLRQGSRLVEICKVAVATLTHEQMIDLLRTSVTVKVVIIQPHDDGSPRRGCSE

T4: PARD3B_1, Q8TEW8
T4 sequence (Q8TEW8 196-299, limits assumed, looked up): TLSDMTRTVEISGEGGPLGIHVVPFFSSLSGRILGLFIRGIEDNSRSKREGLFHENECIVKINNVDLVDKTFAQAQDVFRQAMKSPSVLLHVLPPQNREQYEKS

T5: PCLO, Q9Y6V0
T5 sequence (Q9Y6V0 4491-4600, limits assumed, looked up): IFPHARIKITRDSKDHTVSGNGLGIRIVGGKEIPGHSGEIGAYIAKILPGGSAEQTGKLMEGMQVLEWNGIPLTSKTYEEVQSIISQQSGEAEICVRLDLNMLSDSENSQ

T6: LNX2_2, Q8N448
T6 sequence (Q8N448 334-432, limits assumed, looked up): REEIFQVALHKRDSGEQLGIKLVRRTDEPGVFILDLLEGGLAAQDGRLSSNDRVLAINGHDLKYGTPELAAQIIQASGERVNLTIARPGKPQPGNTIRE

T7: MPDZ_10, O75970
T7 sequence (O75970 1624-1722, limits assumed, looked up): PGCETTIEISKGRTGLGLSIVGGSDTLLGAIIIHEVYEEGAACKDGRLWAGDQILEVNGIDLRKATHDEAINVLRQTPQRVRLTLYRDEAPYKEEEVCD

T8: DFNB31_3, Q9P202
T8 sequence (Q9P202 811-907, limits assumed, looked up): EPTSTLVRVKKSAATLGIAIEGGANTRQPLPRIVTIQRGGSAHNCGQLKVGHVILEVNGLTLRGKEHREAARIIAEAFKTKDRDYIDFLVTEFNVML

T9: GRIP1_7, Q9Y3R0
T9 sequence (Q9Y3R0 999-1096, limits assumed, looked up): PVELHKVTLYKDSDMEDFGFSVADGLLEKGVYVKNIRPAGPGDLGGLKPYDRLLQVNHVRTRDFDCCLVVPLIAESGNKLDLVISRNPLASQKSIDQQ

T10: DLG3_1, Q92796
T10 sequence (Q92796 125-227, limits assumed, looked up): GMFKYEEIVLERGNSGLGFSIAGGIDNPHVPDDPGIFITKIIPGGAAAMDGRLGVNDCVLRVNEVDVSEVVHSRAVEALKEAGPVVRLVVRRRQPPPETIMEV

T11: TIAM2, Q8IVF5
T11 sequence (Q8IVF5 885-986, limits assumed, looked up): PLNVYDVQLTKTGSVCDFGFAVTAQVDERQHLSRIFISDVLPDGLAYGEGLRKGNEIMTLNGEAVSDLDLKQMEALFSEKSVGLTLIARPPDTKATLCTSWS


Biological target: NOS1, P29475
Sequence (P29475 9-101): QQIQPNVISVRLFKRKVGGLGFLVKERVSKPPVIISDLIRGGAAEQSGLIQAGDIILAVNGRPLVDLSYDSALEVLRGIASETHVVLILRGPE
Assay: holdup assay
Design: key: below the threshold = too weak to quantify, mostly under pKd 3.1 to 4
Conditions: plain residues with an end cap or a label only (N-terminal biotin on a linker: ado-ado)

pKd	Binder
below the threshold	LGHTPFVDEL [UQCRC2, P22695]

Biological target: T1, GRIP1_4, Q9Y3R0
Assay: holdup assay
Design: key: below the threshold = too weak to quantify, mostly under pKd 3.1 to 4
Conditions: plain residues with an end cap or a label only (N-terminal biotin on a linker: ado-ado)

pKd	Binder
below the threshold	LGHTPFVDEL [UQCRC2, P22695]

Biological target: LAP2, Q96RT1
Sequence (Q96RT1 other isoform, or with tags, fused parts or gaps): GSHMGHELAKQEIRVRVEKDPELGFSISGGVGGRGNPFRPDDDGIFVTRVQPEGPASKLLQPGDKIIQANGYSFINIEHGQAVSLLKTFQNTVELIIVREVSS
Assay: holdup assay
Design: key: below the threshold = too weak to quantify, mostly under pKd 3.1 to 4
Conditions: plain residues with an end cap or a label only (N-terminal biotin on a linker: ado-ado)

pKd	Binder
below the threshold	LGHTPFVDEL [UQCRC2, P22695]

Biological target: PDLIM1, O00151
Sequence (O00151 1-87): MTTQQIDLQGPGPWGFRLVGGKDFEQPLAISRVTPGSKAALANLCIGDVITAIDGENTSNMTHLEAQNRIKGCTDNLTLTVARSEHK
Assay: holdup assay
Design: key: below the threshold = too weak to quantify, mostly under pKd 3.1 to 4
Conditions: plain residues with an end cap or a label only (N-terminal biotin on a linker: ado-ado)

pKd	Binder
below the threshold	LGHTPFVDEL [UQCRC2, P22695]

Biological target: T2, LRRC7, Q96NW7
Assay: holdup assay
Design: key: below the threshold = too weak to quantify, mostly under pKd 3.1 to 4
Conditions: plain residues with an end cap or a label only (N-terminal biotin on a linker: ado-ado)

pKd	Binder
below the threshold	LGHTPFVDEL [UQCRC2, P22695]

Biological target: T3, SIPA1L2, Q9P2F8
Assay: holdup assay
Design: key: below the threshold = too weak to quantify, mostly under pKd 3.1 to 4
Conditions: plain residues with an end cap or a label only (N-terminal biotin on a linker: ado-ado)

pKd	Binder
below the threshold	LGHTPFVDEL [UQCRC2, P22695]

Biological target: GRID2IP_1, A4D2P6
Sequence (A4D2P6 1-87): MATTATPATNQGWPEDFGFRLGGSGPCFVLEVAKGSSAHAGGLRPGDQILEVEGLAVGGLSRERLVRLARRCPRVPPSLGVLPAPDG
Assay: holdup assay
Design: key: below the threshold = too weak to quantify, mostly under pKd 3.1 to 4
Conditions: plain residues with an end cap or a label only (N-terminal biotin on a linker: ado-ado)

pKd	Binder
below the threshold	LGHTPFVDEL [UQCRC2, P22695]

Biological target: MAGI2_3, Q86UL8
Sequence (Q86UL8 600-682): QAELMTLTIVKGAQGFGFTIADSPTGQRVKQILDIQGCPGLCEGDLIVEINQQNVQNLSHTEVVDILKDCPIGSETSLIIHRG
Assay: holdup assay
Design: key: below the threshold = too weak to quantify, mostly under pKd 3.1 to 4
Conditions: plain residues with an end cap or a label only (N-terminal biotin on a linker: ado-ado)

pKd	Binder
below the threshold	LGHTPFVDEL [UQCRC2, P22695]

Biological target: T4, PARD3B_1, Q8TEW8
Assay: holdup assay
Design: key: below the threshold = too weak to quantify, mostly under pKd 3.1 to 4
Conditions: plain residues with an end cap or a label only (N-terminal biotin on a linker: ado-ado)

pKd	Binder
below the threshold	LGHTPFVDEL [UQCRC2, P22695]

Biological target: DLG2_2, Q15700
Sequence (Q15700 189-283): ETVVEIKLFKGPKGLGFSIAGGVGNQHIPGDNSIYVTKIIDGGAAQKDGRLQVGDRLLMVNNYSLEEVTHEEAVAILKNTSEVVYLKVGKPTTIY
Assay: holdup assay
Design: key: below the threshold = too weak to quantify, mostly under pKd 3.1 to 4
Conditions: plain residues with an end cap or a label only (N-terminal biotin on a linker: ado-ado)

pKd	Binder
below the threshold	LGHTPFVDEL [UQCRC2, P22695]

Biological target: NHERF4_2, Q86UT5
Sequence (Q86UT5 220-308): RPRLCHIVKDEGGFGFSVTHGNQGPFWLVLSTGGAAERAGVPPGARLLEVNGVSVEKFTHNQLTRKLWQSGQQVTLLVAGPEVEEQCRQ
Assay: holdup assay
Design: key: below the threshold = too weak to quantify, mostly under pKd 3.1 to 4
Conditions: plain residues with an end cap or a label only (N-terminal biotin on a linker: ado-ado)

pKd	Binder
below the threshold	LGHTPFVDEL [UQCRC2, P22695]

Biological target: T5, PCLO, Q9Y6V0
Assay: holdup assay
Design: key: below the threshold = too weak to quantify, mostly under pKd 3.1 to 4
Conditions: plain residues with an end cap or a label only (N-terminal biotin on a linker: ado-ado)

pKd	Binder
below the threshold	LGHTPFVDEL [UQCRC2, P22695]

Biological target: SCRIB_3, Q14160
Sequence (Q14160 999-1103): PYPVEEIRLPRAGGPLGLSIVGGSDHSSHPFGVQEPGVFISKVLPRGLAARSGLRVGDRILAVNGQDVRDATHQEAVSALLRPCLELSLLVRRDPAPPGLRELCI
Assay: holdup assay
Design: key: below the threshold = too weak to quantify, mostly under pKd 3.1 to 4
Conditions: plain residues with an end cap or a label only (N-terminal biotin on a linker: ado-ado)

pKd	Binder
below the threshold	LGHTPFVDEL [UQCRC2, P22695]

Biological target: AHNAK1, Q09666
Sequence (Q09666 4-100): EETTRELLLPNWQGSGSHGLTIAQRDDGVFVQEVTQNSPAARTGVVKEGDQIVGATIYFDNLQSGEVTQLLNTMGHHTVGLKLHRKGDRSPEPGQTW
Assay: holdup assay
Design: key: below the threshold = too weak to quantify, mostly under pKd 3.1 to 4
Conditions: plain residues with an end cap or a label only (N-terminal biotin on a linker: ado-ado)

pKd	Binder
below the threshold	LGHTPFVDEL [UQCRC2, P22695]

Biological target: T6, LNX2_2, Q8N448
Assay: holdup assay
Design: key: below the threshold = too weak to quantify, mostly under pKd 3.1 to 4
Conditions: plain residues with an end cap or a label only (N-terminal biotin on a linker: ado-ado)

pKd	Binder
below the threshold	LGHTPFVDEL [UQCRC2, P22695]

Biological target: TJP1_2, Q07157
Sequence (Q07157 181-274): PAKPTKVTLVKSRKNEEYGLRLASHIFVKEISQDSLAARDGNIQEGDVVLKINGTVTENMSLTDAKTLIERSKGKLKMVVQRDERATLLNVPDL
Assay: holdup assay
Design: key: below the threshold = too weak to quantify, mostly under pKd 3.1 to 4
Conditions: plain residues with an end cap or a label only (N-terminal biotin on a linker: ado-ado)

pKd	Binder
below the threshold	LGHTPFVDEL [UQCRC2, P22695]

Biological target: T7, MPDZ_10, O75970
Assay: holdup assay
Design: key: below the threshold = too weak to quantify, mostly under pKd 3.1 to 4
Conditions: plain residues with an end cap or a label only (N-terminal biotin on a linker: ado-ado)

pKd	Binder
below the threshold	LGHTPFVDEL [UQCRC2, P22695]

Biological target: T8, DFNB31_3, Q9P202
Assay: holdup assay
Design: key: below the threshold = too weak to quantify, mostly under pKd 3.1 to 4
Conditions: plain residues with an end cap or a label only (N-terminal biotin on a linker: ado-ado)

pKd	Binder
3.82	LGHTPFVDEL [UQCRC2, P22695]

Biological target: T9, GRIP1_7, Q9Y3R0
Assay: holdup assay
Design: key: below the threshold = too weak to quantify, mostly under pKd 3.1 to 4
Conditions: plain residues with an end cap or a label only (N-terminal biotin on a linker: ado-ado)

pKd	Binder
below the threshold	LGHTPFVDEL [UQCRC2, P22695]

Biological target: DLG4_2, P78352
Sequence (P78352 155-259): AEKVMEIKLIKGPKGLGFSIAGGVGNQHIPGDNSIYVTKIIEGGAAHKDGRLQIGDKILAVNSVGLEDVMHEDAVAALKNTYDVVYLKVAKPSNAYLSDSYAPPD
Assay: holdup assay
Design: key: below the threshold = too weak to quantify, mostly under pKd 3.1 to 4
Conditions: plain residues with an end cap or a label only (N-terminal biotin on a linker: ado-ado)

pKd	Binder
below the threshold	LGHTPFVDEL [UQCRC2, P22695]

Biological target: T10, DLG3_1, Q92796
Assay: holdup assay
Design: key: below the threshold = too weak to quantify, mostly under pKd 3.1 to 4
Conditions: plain residues with an end cap or a label only (N-terminal biotin on a linker: ado-ado)

pKd	Binder
below the threshold	LGHTPFVDEL [UQCRC2, P22695]

Biological target: MAGI2_6, Q86UL8
Sequence (Q86UL8 1141-1229): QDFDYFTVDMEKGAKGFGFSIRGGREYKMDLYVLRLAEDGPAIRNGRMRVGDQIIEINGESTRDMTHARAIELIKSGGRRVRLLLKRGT
Assay: holdup assay
Design: key: below the threshold = too weak to quantify, mostly under pKd 3.1 to 4
Conditions: plain residues with an end cap or a label only (N-terminal biotin on a linker: ado-ado)

pKd	Binder
below the threshold	LGHTPFVDEL [UQCRC2, P22695]

Biological target: Inadl_1, Q8NI35
Sequence (Q8NI35 113-229): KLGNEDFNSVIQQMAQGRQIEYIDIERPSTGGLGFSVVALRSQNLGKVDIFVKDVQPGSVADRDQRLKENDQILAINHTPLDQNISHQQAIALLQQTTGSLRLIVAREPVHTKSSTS
Assay: holdup assay
Design: key: below the threshold = too weak to quantify, mostly under pKd 3.1 to 4
Conditions: plain residues with an end cap or a label only (N-terminal biotin on a linker: ado-ado)

pKd	Binder
below the threshold	LGHTPFVDEL [UQCRC2, P22695]

Biological target: T11, TIAM2, Q8IVF5
Assay: holdup assay
Design: key: below the threshold = too weak to quantify, mostly under pKd 3.1 to 4
Conditions: plain residues with an end cap or a label only (N-terminal biotin on a linker: ado-ado)

pKd	Binder
below the threshold	LGHTPFVDEL [UQCRC2, P22695]

Biological target: SCRIB_2, Q14160
Sequence (Q14160 857-960): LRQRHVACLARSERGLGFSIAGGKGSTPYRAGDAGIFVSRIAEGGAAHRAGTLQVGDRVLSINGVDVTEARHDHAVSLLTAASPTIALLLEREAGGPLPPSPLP
Assay: holdup assay
Design: key: below the threshold = too weak to quantify, mostly under pKd 3.1 to 4
Conditions: plain residues with an end cap or a label only (N-terminal biotin on a linker: ado-ado)

pKd	Binder
below the threshold	LGHTPFVDEL [UQCRC2, P22695]

Biological target: DLG1_1, Q12959
Assay: holdup assay
Design: key: below the threshold = too weak to quantify, mostly under pKd 3.1 to 4
Conditions: plain residues with an end cap or a label only (N-terminal biotin on a linker: ado-ado)

pKd	Binder
below the threshold	LGHTPFVDEL [UQCRC2, P22695]

Biological target: HTRA1, Q92743
Sequence (Q92743 360-477): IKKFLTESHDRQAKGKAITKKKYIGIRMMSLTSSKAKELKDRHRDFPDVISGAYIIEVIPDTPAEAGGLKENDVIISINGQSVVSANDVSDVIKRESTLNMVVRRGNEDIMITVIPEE
Assay: holdup assay
Design: key: below the threshold = too weak to quantify, mostly under pKd 3.1 to 4
Conditions: plain residues with an end cap or a label only (N-terminal biotin on a linker: ado-ado)

pKd	Binder
3.97	LGHTPFVDEL [UQCRC2, P22695]

Source: article PMC9482650, “Quantitative fragmentomics allow affinity mapping of interactomes” (Nature Communications, 2022)
